Here are results for two molecules from article PMC4499140 (Nucleic Acids Research, 2015).

In series [1] the target is Mycobacterium tuberculosis RNA polymerase core (Mycobacterium tuberculosis, UniProt P9WGZ1;P9WGY9;P9WGY7). Put plainly: fluorescence polarisation. (Polarisation of emitted light reports the rotation of a fluorescent probe.)
The target of series [2] is Rv1222 G133C (Fe-BABE);E. coli RNAP-σ70 holoenzyme (Mycobacterium tuberculosis …, UniProt L0T905;P0A7Z4;P0A8V2;P0A8T7;P0A800;P00579 1-154;1-329;1-1342;1-1407;2-91;1-613, C70A;C73A;C109G;G133C|). Put plainly: Fe-BABE footprinting.

B1: Rv1222ΔC, TMR labelled (domain or fragment)
chain: MADPGSVGHVFRRAFSWLPAQFASQSDAPVGAPRQFRSTEHLSIEAIAAFVDGELRMNAHLRAAHHLSLCAQCAAEVDDQSRARAALRDSHPIRIPSTLLGLLSEIPRCPPEGPSKGSSGGSSQGPPDGAAAGFGDRFADGDGG
modifications: TMR label
A word on the Kd: it is the constant that tells how readily two partners part at equilibrium. Lower therefore signals higher affinity. In turn, B1 displayed a Kd in series [1] of 72 ± 26 nM.

B2: lacCONS15 promoter DNA (dsDNA)
DNA 1: CACCCCAGGCTTGACACTTTATGCTTCGGCTCGTATAATGTGTGGAATTGTGAGGAGAGGCGGATAACAATTTCACACAGG
DNA 2: CCTGTGTGAAATTGTTATCCGCCTCTCCTCACAATTCCACACATTATACGAGCCGAAGCATAAAGTGTCAAGCCTGGGGTG
Consider B2, for which the binding result in series [2] is listed as “binds”.
